Measurements taken from patent US10434170B2, “Immunoregulatory vaccine” (S-TARGET THERAPEUTICS GMBH, priority 2012, dated 2019).
Where no end group is shown, it is not given here. [ ]: non-standard residue; d: D form. pGlu = O=C1CC[C@@H](C(=O)O)N1

Tests used:
[1] = system: G17RM; assay: Balb/c mice immunized with TYG100 vaccine, serum IgG titre against G17RM; format: in vivo, mouse; details: peptide immunized without the warhead, Example 14
Protocol: (§1) 6 Balb/c Mice were immunized 3 times on day 0, day 14 and day 35 with TYG100_1RM or G17_1RM (without warhead) containing rhesus monkey G17 (58.4 μg/shot in 0.5 ml). Two weeks after last immunization, serum was taken and analyzed for the presence of IgG antibodies against G17RM, G17H and G17M (=G17 from the mouse)
as §1, with “TYG100_2RM” for “TYG100_1RM or G17_1RM (without warhead)”, “containing the first 13 immuno acids of” for “containing”, “(66.8” for “(58.4”

[2] = system: autologous little gastrin (G17RM); assay: Cynomolgus monkeys immunized, serum IgG (MSD multiplex ELISA) against autologous little gastrin; format: in vivo, rhesus and cynomolgus monkey; details: 6 Cynomolgus monkeys, immunized d0, d14, d28; serum d0-d56
Description: Time curve IgG anti G17 induction, after three injections with the vaccine (TYG100_2RM) on d0, d14 and d28. • A significant IgG induction was seen against the ScFV-coil1 and G17RM and G17H. No response was seen against a control peptide of similar molecular weight or when the animals were immunized with G17RM_2 without the presence of warhead.
6 Cynomolgus monkeys were immunized with TYG100_2RM and 6 were immunized with G17RM_2-coil on d0, d14 and d28. On d0, d14, d28, 42 and d56 serum was analyzed for the presence of IgG antibodies against autologous little gastrin (G17RM), little gastrin from humans (G17H), an irrelevant control peptide of similar MW as gastrin (control peptide) or against warhead (ScFV-coil1) using the multiplex ELISA system of Meso Scale Discovery (MSD) according to the MSD manual. […] The response against G17RM after three immunizations was 75% of the response against ScFV-coil1. This is remarkable since G17RM is a 100% autologous protein of only ˜1.2 kDa whereas ScFV-coil1 is a 100% allogeneic protein of >30 kDa. The anti G17RM antibodies cross reacted strongly with G17H. There was no response against G17RM when the G17RM_2-coil peptide was used without the warhead.

[3] = system: PBMC of Der p1 sensitized rhesus monkeys; assay: Proliferation ([3H]-thymidine) of PBMC of Der p1 sensitized rhesus monkeys (Example 6); format: cell-based, rhesus monkeys (macaca mulatta); details: 3 and 5 μg/ml immunogen 3 vs Der p1, 2-day culture, 20 U/ml IL-2
Protocol: (§2) PBMCs from Der p1 sensitized rhesus monkeys (macaca mulatta) were cultured in triplicate with Der p1 or immunogen 3. Proliferation was assayed by the incorporation of [^3H]-thymidine. Results are shown as counts per minute.
(§3) PBMC (100.000/well) of Der p1 sensitized rhesus monkeys (macaca mulatta) were cultured in triplicate with medium, 3 Der p1 or 3 and 5 μg/ml immunogen 3 at 37° C./5% CO2. in the presence of 20 U/ml IL-2. Proliferation was assayed by the incorporation of [^3H]-thymidine (0.5 μCi/well) during the final 18 hrs of a 2-day culture. Cells were harvested for β-scintillation counting (Topcount NXT, Packard, Ramsey, Minn., USA). Results are shown as counts per minute. In addition from parallel cultures, supernatants were assayed in duplicate for IL-10 and GM-CSF levels using a commercially-available ELISA kit (U-Cytech, Utrecht, The Netherlands) in accordance with the manufacturer's instructions.

[4] = system: PBMC of Der p1 sensitized rhesus monkeys; assay: IL-10 and GM-CSF ELISA in supernatants of PBMC of Der p1 sensitized rhesus monkeys (Example 6); format: cell-based, rhesus monkeys (macaca mulatta); details: 3 and 5 μg/ml immunogen 3 vs Der p1, parallel cultures
Protocol: as §2, §3

[5] = system: PBMC of Der p1 sensitized rhesus monkeys; assay: Warhead mediated enhanced antigen presentation, PBMC proliferation (Example 7); format: cell-based, rhesus monkeys (macaca mulatta)
Protocol: […] proliferation (assayed by the incorporation of [^3H]-thymidine) of Rhesus monkey (macaca mulatta) T cells after pre incubation for 30 ‘on ice with respectively warhead and Der p1 or warhead and immunogen 3. After each pre-incubation the cells were washed. (bdl=below detection limit). • Only when the immunogen could interact with the warhead through its coil (immunogen3) T cell proliferation in a dose dependent fashion could be seen. […] As positive control Der p1 is shown to be reactive after overnight incubation (without washing). • Warhead mediated antigen uptake is more efficient than uptake through pinocytosis
PBMC (100.000/well) of Der p1 sensitized rhesus monkeys (macaca mulatta) were preincubated (30 min on ice) with 1 μg/ml of warhead ScFV and washed 3 times with PBS or preincubated with PBS only and washed three times. Subsequently these cells incubated (30 min on ice) with different concentrations of Immunogen 3 or Der p1 at 3 μg/ml and washed 3 times with PBS after which the cells were culture at 37° C./5% CO2 in the presence of 20 U/ml IL-2 for 48 hours. As a positive control PBMCs (without warhead preincubation) were incubated with 3 μg/ml Der Pb without washing and cultured at 37° C./5% CO2 in the presence of 20 U/ml IL-2. Proliferation was assayed by the incorporation of [^3H]-thymidine (0.5 μCi/well) during the final 18 hrs of a 2-day culture. Cells were harvested for β-scintillation counting (Topcount NXT, Packard, Ramsey, Minn., USA). Results are shown as counts per minute.

[6] = system: ScFV-1-coil; assay: Mice immunized with ScFV-1-coil or warhead, serum IgG1 and IgG2a ELISA against ScFV-1-coil; format: in vivo; details: s.c. 2× 35 μg d0, d14, on Alum or in PBS, sera day 28
Protocol: (§4) 24 mice (6/group) were immunized s.c. 2× with 35 μg in 150 μl ScFV-1-coil or with warhead (ScFV-1-coil-M362) either formulated on Alum or diluted in PBS. Immunizations were done on d0, and d14, sera were taken on d0 (before immunization) and d28 and analyzed for IgG1 and IgG2a against ScFV-1-coil (indicated as ScFV) and mAb IV.3 by standard ELISA.

[7] = system: mAb IV.3; assay: Mice immunized with ScFV-1-coil or warhead, serum IgG1 and IgG2a ELISA against mAb IV.3; format: in vivo, mouse; details: s.c. 2× 35 μg d0, d14, on Alum or in PBS, sera day 28
Protocol: as §4

[8] = system: PBMC of Der p1 sensitized normal donors; assay: Stimulation of human PBMC with immunogen 5-12, IL-10 and IFNg ELISA (Example 10); format: cell-based; details: 24 h, 5, 1 or 0.5 μg/ml vs 3 μg/ml Der p1
Protocol: PBMCs of healthy human donors were cultured for 24 h in triplicate with Der p1 or immunogen 5. Supernatants were harvested and assayed for IL-10 and […] levels (each indicated as pg/ml; BDL=below detection limit) • Human T cells respond equally well to immunogen 5 as to Der p1, as measured by IL-10 and IFNg induction.
PBMC (100.000/well) of Der p1 sensitized normal donors were cultured in triplicate with medium, 3 μg/ml Der p1 or 5, 1 or 0.5 μg/ml immunogen 5-12 (Immo5-12) at 37° C./5% CO2 for 24 h. Supernatants were assayed in duplicate for IL-10 and IFNg levels using a commercially-available ELISA kits (eBioscience) in accordance with the manufacturer's instructions.

[9] = PBMC preincubated with 1 μg/ml warhead ScFV, washed, incubated 30 min on ice with antigen, cultured 48 hours

[pGlu]GPWMEEEEAAYGGGSGGKVSALKEKVSALKEKVSALKEKVSALKEKVSALKE [G17-peptide]
response against G17 [1]: no response

G17RM_2-coil: SEQ ID 103: two rhesus monkey gastrin peptides of SEQ ID 99, branched linker and pepK coil (EGPWMEEEEAAYGGGK(EGPWMEEEEAAYGGG)GGSGGKVSALKEKVSALKEKVSALKEKVSALKEKVSALKE)
IgG response to G17RM [2]: no response

B1: immunogen 3: SEQ ID 23/74: Der P1 and Der P2 T cell epitopes with His tag, linker and pepK coil (protein)
chain 1: HHHHHHYYRYVAREQSCRRPNAQRFGISNYCQIYPPNVNKIREALAQTHSAIAVDLRQMRTVTPIRMQGGCGSCWAFSGVAATESAYLQQYDIKYTWNVPKIAPKSENVVVTVKVMGDDGVLACAIATHAKIRDDAFRHYDGRTIIQRDNGYQPNYHAVNIVGYSNAQGVDYWIVRNSWDTNWHEIKKVLVPGCHGSEPCIIHRGKPFGGGSGGGSCGGKVSALKEKVSALKEKVSALKEKVSALKEKVSALKE
chain 2: HHHHHHYYRYVAREQSCRRPNAQRFGISNYCQIYPPNVNKIREALAQTHSAIAVDLRQMRTVTPIRMQGGCGSCWAFSGVAATESAYLQQYDIKYTWNVPKIAPKSENVVVTVKVMGDDGVLACAIATHAKIRDDAFRHYDGRTIIQRDNGYQPNYHAVNIVGYSNAQGVDYWIVRNSWDTNWHEIKKVLVPGCHGSEPCIIHRGKPFGGGSGGGSGGKVSALKEKVSALKEKVSALKEKVSALKEKVSALKE
modifications: Immunogen-coil
proliferation, response compared with Der p1 [3]: non-significant difference
cytokine production (IL-10 and GM-CSF), response compared with Der p1 [4]: non-significant difference
proliferation of PBMC [5, 9]: dose dependent stimulation
stimulation relative to positive control ([5]; after warhead ScFV preincubation, positive control = PBMC cultured 48 h with 3 μg/ml Der p1 without washing): even higher than the positive control
proliferation of PBMC ([5]; preincubated immunogen in the absence of warhead (data not shown)): did not lead to proliferation

B2: warhead (conjugate)
scFv: EVQLQQSGPELKKPGETVKISCKASGYTFTNYGMNWVKQAPGKGLKWMGWLNTYTGESIYPDDFKGRFAFSSETSASTAYLQINNLKNEDMATYFCARGDYGYDDPLDYWGQGTSVTVSSGGGGSGGGGSGGGGSDIVMTQAAPSVPVTPGESVSISCRSSKSLLHTNGNTYLHWFLQRPGQSPQLLIYRMSVLASGVPDRFSGSGSGTAFTLSISRVEAEDVGVFYCMQHLEYPLTFGAGTKLELKGSISAWSHPQFEKGPEVSALEKEVSALEKEVSALEKEVSALEKEVSALEK
IgG1 response to ScFV-1-coil [6]: strong
IgG2a response to ScFV-1-coil [6]: strong
IgG1 response to mAb IV.3 [7]: strong
IgG2a response to mAb IV.3 [7]: strong

B3: ScFV-1-coil: SEQ ID 70: ScFV derived from anti-CD32a mAb IV.3 with StrepTag II and pepE coil (protein)
scFv: B2 scFv
modifications: ScFV-coil
IgG1 response to ScFV-1-coil [6]: only in the presence of Alum
IgG2a response to ScFV-1-coil [6]: no IgG2a response

B4: immunogen 5: SEQ ID 30/75: ~29 T cell epitopes of ten Der p allergens with His tag, linkers and pepK coil (protein)
chain 1: GVLACAIATHAKIREQERLVKLETVKKSLEQEVRTLHVRIEEVEANALAGGDLRQMRTVTPIRMQGGCGSCWEAHEQQIRIMTTKLKEAEARQQYDIKYTWNVPKIAVNIVGYSNAQGVDYWIVRNSWDTNWYHNPHFIGNRSVITHLMEDLKGELDMRNIQVRGLKQMKRVGDANVKSEDDAFRHYDGRTIIQRDNGYQPNYLDEYWILTAAHCVDGQTVSKLIRSKVLGEKISYYRYVAREQSCRRPNAQRFGISNYCVVVTVKVMGDDELHTYFNVNYTMHYYLNNGATRDILDEYWILTAAHCVAGQTASKLSIRYNSLKHSLFKYRPFKVNELNLEGEFGRELQHKFRLMRNSQMEVEEGGGSHHHHHHGGGSCGGKVSALKEKVSALKEKVSALKEKVSALKEKVSALKE
chain 2: B4 chain 1
modifications: Immunogen-coil
IFNg induction, response compared with Der p1 [8]: equally well
IL-10 induction, response compared with Der p1 [8]: equally well

B5: Der p1: house dust mite allergen used as comparator antigen (protein)
chain: TNACSINGNAPAEIDLRQMRTVTPIRMQGGCGSCWAFSGVAATESAYLAYRNQSLDLAEQELVDCASQHGCHGDTIPRGIEYIQHNGVVQESYYRYVAREQSCRRPNAQRFGISNYCQIYPPNVNKIREALAQTHSAIAVIIGIKDLDAFRHYDGRTIIQRDNGYQPNYHAVNIVGYSNAQGVDYWIVRNSWDTNWGDNGYGYFAANIDLMMIEEYPYVVIL
proliferation of PBMC [5, 9]: did not lead to proliferation
